Read-outs that look alike come from different tables or passages of the source. One block for each binder: values may come before it.
Experiments:
[1] = target: T1, neutrophil proteinase 3 (PR3), purified native human PR3 (human, UniProt P24158 28-248); test: BIACORE (SPR)
T1 construct: Also used in denatured form in western blot and as the antigen of the EuroImmun anti-PR3 kit; also called native PR3
T1 sequence: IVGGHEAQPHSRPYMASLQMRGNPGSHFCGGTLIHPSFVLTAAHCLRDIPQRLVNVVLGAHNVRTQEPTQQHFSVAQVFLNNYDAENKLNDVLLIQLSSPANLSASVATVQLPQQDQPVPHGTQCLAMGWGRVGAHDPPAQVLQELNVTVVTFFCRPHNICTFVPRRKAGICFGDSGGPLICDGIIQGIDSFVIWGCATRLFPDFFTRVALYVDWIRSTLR

BSA = target: T2, BSA (bovine, UniProt P02769); test: ELISA, compared with coated PR3
T2 construct: in the ELISA well; also called Bovine Serum Albumin

Cathepsin G (Cath G) = target: T3, Cathepsin G (Cath G) (UniProt P08311 21-244); test: western blot, 4C3 as the primary antibody
T3 sequence (looked up): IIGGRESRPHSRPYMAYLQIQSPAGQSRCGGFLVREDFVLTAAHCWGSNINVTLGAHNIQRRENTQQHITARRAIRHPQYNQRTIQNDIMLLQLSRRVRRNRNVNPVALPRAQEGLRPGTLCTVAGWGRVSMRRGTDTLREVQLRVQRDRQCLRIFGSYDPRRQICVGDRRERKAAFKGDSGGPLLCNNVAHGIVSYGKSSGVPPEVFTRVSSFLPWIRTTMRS
Excerpt: (§1) To confirm anti-PR3 specificity, 4C3 was used as a primary antibody in western blot (FIGS. 8A and 8B) on protein lysates from neutrophils, HeLa cells (ATCC® CCL-2™) and human PR3.

Elastase = target: T4, Elastase (UniProt P08246 30-247, limits assumed); test: western blot, 4C3 as the primary antibody
T4 sequence (looked up): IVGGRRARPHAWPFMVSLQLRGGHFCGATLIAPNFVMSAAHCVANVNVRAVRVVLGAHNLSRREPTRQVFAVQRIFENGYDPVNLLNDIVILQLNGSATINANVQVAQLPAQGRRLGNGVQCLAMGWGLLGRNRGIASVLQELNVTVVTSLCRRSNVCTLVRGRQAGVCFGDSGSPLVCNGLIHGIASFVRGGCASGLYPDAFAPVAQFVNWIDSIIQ
Excerpt: as §1

OVA [2] = target: T5, OVA; test: specificity ELISA on different coated antigens (n=5)
T5 construct: One of the antigens of group m15; also called ovalbumin
T5 chain: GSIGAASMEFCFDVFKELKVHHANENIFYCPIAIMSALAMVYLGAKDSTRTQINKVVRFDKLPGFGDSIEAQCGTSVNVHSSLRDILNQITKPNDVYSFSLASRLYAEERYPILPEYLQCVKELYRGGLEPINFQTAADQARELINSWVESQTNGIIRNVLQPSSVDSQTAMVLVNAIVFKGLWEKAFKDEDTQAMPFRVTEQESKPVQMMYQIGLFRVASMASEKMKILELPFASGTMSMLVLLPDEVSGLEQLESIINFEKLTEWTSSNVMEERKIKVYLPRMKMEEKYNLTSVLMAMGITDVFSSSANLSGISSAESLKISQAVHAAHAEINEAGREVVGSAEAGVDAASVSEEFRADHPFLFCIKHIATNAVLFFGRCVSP

[3] = target: T6, peptide 4C3_3.2 of PR3, biotinylated (human, biotinylated (position not given)); test: HTRF: anti-Fab antibody coupled to d2 on 4C3, terbium-streptavidin on the biotinylated peptide; ratio, baseline-corrected
T6 construct: also called peptide 3.2
Protocol: The identification of the epitope recognised by the 4C3 antibody was carried out by MabSilico. The first step enabled the PR3 epitope to be modelled using the MabTope method, which consists of the computer prediction of an ordered list of PR3 peptides likely to belong to the epitope from the sequence of the variable part (VH and VL) of 4C3 (FIGS. 4B and 4C). The second step allowed the experimental measurement of the specific binding of a number of these peptides to the antibody. This measurement was made by HTRF (Homogeneous Time Resolved Fluorescence) between an anti-Fab d2-coupled antibody (CisBio™) which binds to the antibody of interest, and a terbium-coupled streptavidin (CisBio™) which binds to the biotinylated peptide (FIG. 4D).

[4] = target: T1, neutrophil proteinase 3 (PR3), purified …; test: BIACORE (SPR); remark: listed apart in the source
OVA [5] = target: T5, OVA; test: ELISA, compared with coated PR3

T2 sequence (P02769 25-607 limits assumed): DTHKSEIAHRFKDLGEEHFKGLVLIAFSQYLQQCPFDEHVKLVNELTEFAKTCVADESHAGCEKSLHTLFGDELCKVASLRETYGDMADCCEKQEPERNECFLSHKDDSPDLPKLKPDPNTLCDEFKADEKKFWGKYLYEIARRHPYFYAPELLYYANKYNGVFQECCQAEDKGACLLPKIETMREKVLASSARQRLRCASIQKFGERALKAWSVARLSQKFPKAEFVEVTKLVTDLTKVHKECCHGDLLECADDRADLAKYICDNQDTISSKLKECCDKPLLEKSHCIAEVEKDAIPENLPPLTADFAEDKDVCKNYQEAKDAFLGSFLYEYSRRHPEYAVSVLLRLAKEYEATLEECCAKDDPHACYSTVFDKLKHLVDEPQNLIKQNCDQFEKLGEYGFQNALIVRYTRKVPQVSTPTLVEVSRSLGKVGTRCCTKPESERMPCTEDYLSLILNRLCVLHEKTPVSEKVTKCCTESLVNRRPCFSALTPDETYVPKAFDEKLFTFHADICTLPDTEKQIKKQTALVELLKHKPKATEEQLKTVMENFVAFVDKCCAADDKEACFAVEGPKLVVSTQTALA

- Kd [1]: 0.741 nM
- koff [1]: 0.00936 s⁻¹
- kon [1]: 1.26e+07 M⁻¹ s⁻¹
- binding result (BSA): no binding
- binding result (Cathepsin G (Cath G)): no binding (tested: 5 µg per lane)
- binding result (Elastase): no binding (tested: 5 µg per lane)
- binding result (OVA [2]): no binding
- binding result [3]: binds
B1: human monoclonal anti-proteinase 3 (PR3) 4C3 antibody, G1m3-1 allotype (antibody, human IgG1, kappa)
heavy: not shown
light: DIQMTQSPPTLSASVGDRVTITCRASQSISDWLAWYQQKPGKPPQLLIYKASSLESGVPSRFSGTGSGAEFTLTISSLQPDDSATYYCQQYNSYSNTFGQGTKLEIKRTVAAPSVFIFPPSDEQLKSGTASVVCLLNNFYPREAKVQWKVDNALQSGNSQESVTEQDSKDSTYSLSSTLTLSKADYEKHKVYACEVTHQGLSSPVTKSFNRGEC
notes: also called MAb 4C3; AcMo 4C3

- Kd [4]: 0.684 nM
- koff [4]: 0.00936 s⁻¹
- kon [4]: 1.37e+07 M⁻¹ s⁻¹
- binding result (BSA): no binding
B2: recombinant 4C3 antibody (r4C3), G1m17-1 allotype (antibody, human IgG1, kappa)
heavy: not shown
light: B1 light
notes: Produced in HEK-293 cells; differs from 4C3 only by R>K at position 224 of the heavy chain constant region
- binding result (OVA [5]): no binding (tested: 1 µg/ml (coating of Ova))

From patent US20230203197A1 (UNIVERSITE DE TOUR, published 2023)
